Values of other authors as cited in PMC4753134.

Columns and labels:
Met (Homo sapiens) = Met (Homo sapiens) (UniProt P08581)
EGFR (Homo sapiens) = EGFR (Homo sapiens) (UniProt P00533)

Sequence of UniProt P08581 (P08581 25-932): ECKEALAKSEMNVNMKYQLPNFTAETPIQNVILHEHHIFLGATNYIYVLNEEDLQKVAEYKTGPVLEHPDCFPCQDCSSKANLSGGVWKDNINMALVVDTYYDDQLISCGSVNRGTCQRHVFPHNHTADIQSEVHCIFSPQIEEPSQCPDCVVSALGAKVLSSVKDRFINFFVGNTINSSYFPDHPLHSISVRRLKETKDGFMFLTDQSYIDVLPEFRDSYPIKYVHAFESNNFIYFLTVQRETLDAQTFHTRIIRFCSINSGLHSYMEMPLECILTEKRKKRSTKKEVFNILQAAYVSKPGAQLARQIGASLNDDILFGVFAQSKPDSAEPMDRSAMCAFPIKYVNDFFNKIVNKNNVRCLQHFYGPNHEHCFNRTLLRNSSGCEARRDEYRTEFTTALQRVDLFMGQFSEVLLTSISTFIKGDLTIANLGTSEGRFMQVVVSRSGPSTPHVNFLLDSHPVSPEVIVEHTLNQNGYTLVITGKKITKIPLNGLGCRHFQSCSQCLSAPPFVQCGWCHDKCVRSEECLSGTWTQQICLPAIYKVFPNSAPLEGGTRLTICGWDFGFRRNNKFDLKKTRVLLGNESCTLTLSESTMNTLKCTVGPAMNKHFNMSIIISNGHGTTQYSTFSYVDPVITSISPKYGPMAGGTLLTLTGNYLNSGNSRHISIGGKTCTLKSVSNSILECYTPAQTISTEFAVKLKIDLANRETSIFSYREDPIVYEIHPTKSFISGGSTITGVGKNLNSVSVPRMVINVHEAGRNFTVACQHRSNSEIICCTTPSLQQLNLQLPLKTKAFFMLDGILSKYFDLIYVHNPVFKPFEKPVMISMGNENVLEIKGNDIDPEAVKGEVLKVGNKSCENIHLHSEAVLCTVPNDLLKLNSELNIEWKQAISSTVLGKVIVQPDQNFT

Kd (Met (Homo sapiens)): 2 nM
Kd (EGFR (Homo sapiens)): 87 nM
Substance: decorin (from UniProt P07585)
